Laboratory results published in patent US20230242611A1 (YEDA RESEARCH AND DEVELOPMENT, published 2023).
Numbering of substitutions follows the chain as printed. In names and notes the source's numbering stands.

T1: MAGE-A1 peptide on HLA-A*02:01 (human)
T1 chain: KVLEYVIKV

T2: MAGE-A1 278-286 with alanine at position 7 peptide on HLA-A*02:01 (human)
T2 peptide: KVLEYVAKV

T3: MUC1 peptide on HLA-A*02:01 (human)
T3 peptide: LLLTVLTVV

T4: MAGE-A1 278-286 with alanine at position 2 peptide on HLA-A*02:01 (human)
T4 peptide: KALEYVIKV

T5: MAGE-A1 278-286 with alanine at position 1 peptide on HLA-A*02:01 (human)
T5 peptide: AVLEYVIKV

T6: MAGE-A1 278-286 with alanine at position 6 peptide on HLA-A*02:01 (human)
T6 peptide: KVLEYAIKV

T7: MAGE-A1 278-286 with alanine at position 3 peptide on HLA-A*02:01 (human)
T7 peptide: KVAEYVIKV

T8: MAGE-A1 278-286 with alanine at position 9 peptide on HLA-A*02:01 (human)
T8 peptide: KVLEYVIKA

T9: MAGE-A1 278-286 with alanine at position 4 peptide on HLA-A*02:01 (human)
T9 peptide: KVLAYVIKV

T10: MAGE-A1 278-286 with alanine at position 5 peptide on HLA-A*02:01 (human)
T10 peptide: KVLEAVIKV

T11: MAGE-A1 278-286 with alanine at position 8 peptide on HLA-A*02:01 (human)
T11 peptide: KVLEYVIAV

T12: MAGE-A1 peptide on HLA-A*02:01 (human)
T12 peptide: KVLEYVIKV

B1: wild type (WT) hT27 TCR, MAGE-A1 specific (TCR)
TCR alpha: RGEDVEQSLFLSVREGDSSVINCTYTDSSSTYLYWYKQEPGAGLQLLTYIFSNMDMKQDQRLTVLLNKKDKHLSLRIADTQTGDSAIYFCAGSGGGTDKLIFGTGTRLQVFPNIQNPEPAVYQLKDPRSQDSTLCLFTDFDSQINVPKTMESGTFITDKTVLDMKAMDSKSNGAIAWSNQTSFTCQDIFKETNATYPSSDVPCDATLTEKSFETDMNLNFQNLSVMGLRILLLKVAGFNLLMTLRLWSS
TCR beta: AVVSQHPSWVICKSGTSVKIECRSLDFQATTMFWYRQFPKQSLMLMATSNEGSKATYEQGVEKDKFLINHASLTLSTLTVTSAHPEDSSFYICSAREPGQGPYEQYFGPGTRLTVTEDLRNVTPPKVSLFEPSKAEIANKQKATLVCLARGFFPDHVELSWWVNGKEVHSGVSTDPQAYKESNYSYCLSSRLRVSATFWHNPRNHFRCQVQFHGLSEEDKWPEGSPKPVTQNISAEAWGRADCGITSASYHQGVLSATILYEILLGKATLYAVLVSGLVLMAMVKKKNS
B2: hT27 TCR comprising S109N mutation in the beta chain (m2) (TCR, V domains shown)
V domain 1: RGEDVEQSLFLSVREGDSSVINCTYTDSSSTYLYWYKQEPGAGLQLLTYIFSNMDMKQDQRLTVLLNKKDKHLSLRIADTQTGDSAIYFCAGSGGGTDKLIFGTGTRLQVFP
V domain 2: AVVSQHPSWVICKSGTSVKIECRSLDFQATTMFWYRQFPKQSLMLMATSNEGSKATYEQGVEKDKFLINHASLTLSTLTVTSAHPEDSSFYICNAREPGQGPYEQYFGPGTRLTVTE
B3: hT27 TCR comprising G125V mutation in the alpha chain (m8) (TCR)
TCR alpha: B1 TCR alpha with G105V
TCR beta: B1 TCR beta
B4: hT27 TCR comprising T63I mutation in the beta chain (m3) (TCR, V domains shown)
V domain 1: B2 V domain 1
V domain 2: B2 V domain 2 with T48I, N94S
B5: hT27 TCR comprising W55L+Y56F mutations in the alpha chain (m9) (TCR, V domains shown)
V domain 1: EDVEQSLFLSVREGDSSVINCTYTDSSSTYLYLFKQEPGAGLQLLTYIFSNMDMKQDQRLTVLLNKKDKHLSLRIADTQTGDSAIYFCAGSGGGTDKLIFGTGTRLQVFP
V domain 2: B2 V domain 2 with N94S
B6: hT27 TCR m2 (beta chain S109N) (TCR, V domains shown)
Valpha: GEDVEQSLFLSVREGDSSVINCTYTDSSSTYLYWYKQEPGAGLQLLTYIFSNMDMKQDQRLTVLLNKKDKHLSLRIADTQTGDSAIYFCAGSGGGTDKLIFGTGTRLQVFP
Vbeta: GAVVSQHPSWVICKSGTSVKIECRSLDFQATTMFWYRQFPKQSLMLMATSNEGSKATYEQGVEKDKFLINHASLTLSTLTVTSAHPEDSSFYICNAREPGQGPYEQYFGPGTRLTVT
B7: hT27 TCR m3 (beta chain T63I) (TCR, V domains shown)
Valpha: B6 Valpha
Vbeta: B6 Vbeta with T49I, N95S
B8: hT27 TCR m8 (alpha chain G125V) (TCR, V domains shown)
Valpha: B6 Valpha with G104V
Vbeta: B6 Vbeta with N95S
B9: hT27 TCR (TCR, V domains shown)
Valpha: B6 Valpha
Vbeta: B6 Vbeta with N95S
B10: hT27 TCR m7 (alpha chain G125A) (TCR, V domains shown)
Valpha: B6 Valpha with G104A
Vbeta: B6 Vbeta with N95S
B11: hT27 TCR with beta chain S32T and S109N mutations (TCR, V domains shown)
Valpha: B6 Valpha
Vbeta: B6 Vbeta with S18T

target: MAGE-A1278-286 peptide presented on HLA-A2 on cells (peptide-loaded T2 cells; 721.211-A2 MAGE-A1+ cells) (human); assay: cell-based or functional assay; settings: not given

| % IFNγ+ cells after co-culture with 721.211-A2 cells [% IFNγ+] | EC50 of IFNγ production (peptide concentration), T2 cells loaded with MAGE-A1 peptide [pM] | EC50 of IFNγ production against WT hT27 | EC50 of IL2 production against WT hT27 | Binder |
| --- | --- | --- | --- | --- |
| 3.3 | 3540 |  |  | B1 |
| 49.7 |  | ~4 orders of magnitude lower than WT hT27 TCR | ~3 orders of magnitude lower than WT hT27 TCR | B2 |
| 3.8 | 0.982 | ~4 orders of magnitude lower than WT hT27 TCR | ~3 orders of magnitude lower than WT hT27 TCR | B3 |
| 6.9 | 0.352 | ~4 orders of magnitude lower than WT hT27 TCR | ~3 orders of magnitude lower than WT hT27 TCR | B4 |
| 5.4 | 0.275 | ~4 orders of magnitude lower than WT hT27 TCR | ~3 orders of magnitude lower than WT hT27 TCR | B5 |

Target: T1, MAGE-A1 peptide on HLA-A*02:01 (human)
Assay: intracellular IFNγ; transduced human PBMCs (donor I); peptide titration on T2 cells; unit not printed for m2 (the others in pM); minimal activity not reached; full-length, on cells
Settings: chains Valpha:Vbeta

| EC50 of peptide | Binder |
| --- | --- |
| 0.289 | B6 |

Target: T1, MAGE-A1 peptide on HLA-A*02:01 (human)
Assay: intracellular IFNγ and IL2, 6 h; transduced human PBMCs; peptide-loaded T2 cells and 721.211-A2 cells that express the antigen; full-length, on cells
Settings: chains Valpha:Vbeta

| percent IFNγ+ cells towards 721.211-A2 cells [%] | Binder |
| --- | --- |
| 49.7 | B6 |

Target: T2, MAGE-A1 278-286 with alanine at …
Assay: cytokine release
Settings: not given

| binding result | Binder |
| --- | --- |
| recognises | B6 |
| recognises | B7 |
| recognises | B8 |

Target: T3, MUC1 peptide on HLA-A*02:01
Assay: cytokine release
Settings: not given

| binding result | Binder |
| --- | --- |
| recognises | B6 |

Target: T4, MAGE-A1 278-286 with alanine at …
Assay: cytokine release
Settings: not given

| binding result | Binder |
| --- | --- |
| recognises | B6 |
| recognises | B7 |
| recognises | B8 |

Target: T5, MAGE-A1 278-286 with alanine at …
Assay: cytokine release
Settings: not given

| binding result | Binder |
| --- | --- |
| recognises | B6 |
| recognises | B7 |
| recognises | B8 |
| recognises | B9 |

Target: T6, MAGE-A1 278-286 with alanine at …
Assay: cytokine release
Settings: not given

| binding result | Binder |
| --- | --- |
| recognises | B6 |
| recognises | B7 |
| recognises | B8 |
| no recognition | B9 |

Target: T7, MAGE-A1 278-286 with alanine at …
Assay: cytokine release
Settings: not given

| binding result | Binder |
| --- | --- |
| recognises | B6 |
| no recognition | B9 |

Target: T8, MAGE-A1 278-286 with alanine at …
Assay: cytokine release
Settings: not given

| binding result | Binder |
| --- | --- |
| recognises | B6 |
| recognises | B7 |
| recognises | B8 |
| recognises | B9 |

Target: T9, MAGE-A1 278-286 with alanine at …
Assay: cytokine release
Settings: not given

| binding result | Binder |
| --- | --- |
| recognises | B6 |
| no recognition | B9 |

Target: T10, MAGE-A1 278-286 with alanine at …
Assay: cytokine release
Settings: not given

| binding result | Binder |
| --- | --- |
| recognises | B6 |
| no recognition | B9 |

Target: T11, MAGE-A1 278-286 with alanine at …
Assay: cytokine release
Settings: not given

| binding result | Binder |
| --- | --- |
| recognises | B6 |
| recognises | B7 |
| recognises | B8 |
| no recognition | B9 |

Target: T3, MUC1 peptide on HLA-A*02:01
Assay: killing
Settings: not given

| Binder | binding result |
| --- | --- |
| B7 | no recognition |
| B8 | no recognition |
| B9 | no recognition |

Target: T12, MAGE-A1 peptide on HLA-A*02:01
Assay: multimer staining
Settings: not given

| binding result | Binder |
| --- | --- |
| recognises | B7 |
| recognises | B8 |
| recognises | B10 |
| recognises | B11 |
